Assay results: US20160287687A1 (IMMATICS BIOTECHNOLOGIES, published 2016)

Each binder was assayed against T1, HLA-A*02:01 (human) (assay: UV-ligand exchange + anti-b2m ELISA; peptide exchange yield grade (+ >=10%, ++ >=20%, +++ >=50, ++++ >=75%)).
T1 construct: MHC monomers first loaded with a UV-sensitive peptide (not identified) that is cleaved by UV light and exchanged for the test peptide; captured on streptavidin plates, detected with anti-β2m; also called peptide-receptive MHC molecules; MHC class I
Text: Candidate peptides for T cell based therapies according to the present invention were further tested for their MHC binding capacity (affinity). The individual peptide-MHC complexes were produced by UV-ligand exchange, where a UV-sensitive peptide is cleaved upon UV-irradiation, and exchanged with the peptide of interest as analyzed. Only peptide candidates that can effectively bind and stabilize the peptide-receptive MHC molecules prevent dissociation of the MHC complexes. To determine the yield of the exchange reaction, an ELISA was performed based on the detection of the light chain (β2m) of stabilized MHC complexes. The assay was performed as generally described in Rodenko et al. (Rodenko et al., 2006).
96 well MAXISorp plates (NUNC) were coated over night with 2 ug/ml streptavidin in PBS at room temperature, washed 4× and blocked for 1h at 37° C. in 2% BSA containing blocking buffer. Refolded HLA-A*02:01/MLA-001 monomers served as standards, covering the range of 15-500 ng/ml. Peptide-MHC monomers of the UV-exchange reaction were diluted 100 fold in blocking buffer. Samples were incubated for 1 h at 37° C., washed four times, incubated with 2 ug/ml HRP conjugated anti-β2m for 1h at 37° C., washed again and detected with TMB solution that is stopped with […]. Absorption was measured at 450 nm. Candidate peptides that show a high exchange yield (preferably higher than 50%, most preferred higher than 75%) are generally preferred for a generation and production of antibodies or fragments thereof, and/or T cell receptors or fragments thereof, as they show sufficient avidity to the MHC molecules and prevent dissociation of the MHC complexes.

peptide exchange yield [%]	Binder
20 to 50	LLVPAHLVAA (source gene ESM1) [LLVPAHLVAA (SEQ ID NO: 25)]
50 to 75	FTLGTTVFL (source gene NDUFC1) [FTLGTTVFL (SEQ ID NO: 24)]
50 to 75	VLMDLKALLL (source gene DDX41) [VLMDLKALLL (SEQ ID NO: 107)]
50 to 75	FLSQDIITV (source gene REN) [FLSQDIITV (SEQ ID NO: 4)]
50 to 75	ALLGIPLTL (source genes KCNK3, KCNK15) [ALLGIPLTL (SEQ ID NO: 45)]
50 to 75	YLKDELDEL (source gene SOGA2) [YLKDELDEL (SEQ ID NO: 43)]
50 to 75	YVLDLAAKV (source gene ACLY) [YVLDLAAKV (SEQ ID NO: 18)]
50 to 75	YIQEVVQYI (source gene PLCB1) [YIQEVVQYI (SEQ ID NO: 23)]
20 to 50	YLALILPVL (source gene SLC16A4) [YLALILPVL (SEQ ID NO: 55)]
20 to 50	VVASNIMEV (source gene PFKFB3) [VVASNIMEV (SEQ ID NO: 48)]
50 to 75	SLKNNVVSV (source gene TGFBI) [SLKNNVVSV (SEQ ID NO: 59)]
50 to 75	YIQEHLLQI (source gene IVNS1ABP) [YIQEHLLQI (SEQ ID NO: 40)]
20 to 50	TLLETEMLL (source gene CEP44) [TLLETEMLL (SEQ ID NO: 111)]
50 to 75	VLMDLKALL (source gene DDX41) [VLMDLKALL (SEQ ID NO: 106)]
50 to 75	FLSPPLPSV (source genes BCKDHA, TMEM91) [FLSPPLPSV (SEQ ID NO: 22)]
50 to 75	ELNNQNFYL (source gene CIT) [ELNNQNFYL (SEQ ID NO: 34)]
50 to 75	ILAQQVHAL (source gene KIF12) [ILAQQVHAL (SEQ ID NO: 17)]
≥ 75	YLWSRVEKL (source gene LRRK2) [YLWSRVEKL (SEQ ID NO: 109)]
50 to 75	ILMDFSNSM (source gene ITGB4) [ILMDFSNSM (SEQ ID NO: 56)]
20 to 50	LLDLHSYLL (source gene MARCH6) [LLDLHSYLL (SEQ ID NO: 110)]
20 to 50	KLLQNNYGL (source gene RGS5) [KLLQNNYGL (SEQ ID NO: 10)]
20 to 50	VLISVLQAI (source gene CYFIP2) [VLISVLQAI (SEQ ID NO: 108)]

peptide exchange yield [%]	Binder
50 to 75	ALFSFVTAL (source gene TTYH3) [ALFSFVTAL (SEQ ID NO: 44)]
20 to 50	AVANTTFTV (source gene HSD3B7) [AVANTTFTV (SEQ ID NO: 20)]
50 to 75	ALIVSLPYL (source gene SLC17A3; also called SLC17A3-001) [ALIVSLPYL (SEQ ID NO: 1)]
50 to 75	ILLDLEQAL (source gene CUL7) [ILLDLEQAL (SEQ ID NO: 29)]
20 to 50	SLSDHIVLL (source gene ITGA3) [SLSDHIVLL (SEQ ID NO: 50)]
20 to 50	QLFYTKIFL (source gene PLOD1) [QLFYTKIFL (SEQ ID NO: 30)]
20 to 50	SLFGKKYIL (source gene FHL2) [SLFGKKYIL (SEQ ID NO: 36)]
50 to 75	NLWPMILTL (source gene ITGA3) [NLWPMILTL (SEQ ID NO: 51)]
20 to 50	SLQKEILYL (source gene ATG2B) [SLQKEILYL (SEQ ID NO: 57)]
50 to 75	ALADLDELLIRA (source gene HSPG2) [ALADLDELLIRA (SEQ ID NO: 105)]
20 to 50	RLIQGDQILSV (source gene INADL) [RLIQGDQILSV (SEQ ID NO: 21)]
20 to 50	SILDAVQRV (source gene PXDNL) [SILDAVQRV (SEQ ID NO: 52)]
50 to 75	ALFEGVVRQI (source gene RRAD) [ALFEGVVRQI (SEQ ID NO: 104)]
50 to 75	YLLNLNHLGL (source gene TRAM1) [YLLNLNHLGL (SEQ ID NO: 39)]
20 to 50	FMPEELPQL (source gene THNSL2) [FMPEELPQL (SEQ ID NO: 16)]
20 to 50	KLQDGLLHI (source gene TIMP1) [KLQDGLLHI (SEQ ID NO: 103)]
20 to 50	ILIKHLVKV (source gene ARHGAP42) [ILIKHLVKV (SEQ ID NO: 15)]
20 to 50	FIADLVVGL (source genes ENO1, ENO2, ENO3) [FIADLVVGL (SEQ ID NO: 28)]
20 to 50	FIQTEAPKEV (source gene RGS5) [FIQTEAPKEV (SEQ ID NO: 11)]
50 to 75	ILWREVVTL (source gene HSF4) [ILWREVVTL (SEQ ID NO: 2)]
50 to 75	SLSDLLVSL (source gene OPN3) [SLSDLLVSL (SEQ ID NO: 27)]
20 to 50	LLDPGSLQL (source gene SYNDIG1L) [LLDPGSLQL (SEQ ID NO: 19)]

peptide exchange yield [%]	Binder
20 to 50	ALVAKGLVQA (source gene AKR1A1) [ALVAKGLVQA (SEQ ID NO: 54)]
50 to 75	KIMAQILTV (source gene LRRK2) [KIMAQILTV (SEQ ID NO: 13)]
50 to 75	VLFGLDPAVIKV (source gene HSPA12A) [VLFGLDPAVIKV (SEQ ID NO: 31)]
50 to 75	GLSEVLVQI (source gene MICAL3) [GLSEVLVQI (SEQ ID NO: 46)]
≥ 75	FLVDFEQSHL (source gene CYP2J2) [FLVDFEQSHL (SEQ ID NO: 58)]
20 to 50	VILDTGTIQL (source gene NAT8) [VILDTGTIQL (SEQ ID NO: 42)]
20 to 50	FIADVVEKI (source genes HTRA1, HTRA3) [FIADVVEKI (SEQ ID NO: 33)]
20 to 50	RLLGEVQAL (source gene HSF4) [RLLGEVQAL (SEQ ID NO: 3)]
20 to 50	VLAPVILML (source gene ABCC3) [VLAPVILML (SEQ ID NO: 37)]
50 to 75	SLFDWNVKL (source gene UBE2QL1) [SLFDWNVKL (SEQ ID NO: 113)]
20 to 50	FLLEIRQTL (source gene SNX13) [FLLEIRQTL (SEQ ID NO: 53)]
50 to 75	LLFDHLEPIEL (source gene RASGRP3) [LLFDHLEPIEL (SEQ ID NO: 112)]
50 to 75	VLLDTILQL (source gene HSF2BP) [VLLDTILQL (SEQ ID NO: 38)]
20 to 50	ALLTETIFL (source gene LRRK2) [ALLTETIFL (SEQ ID NO: 14)]
50 to 75	ILWKDIEYV (source gene SYT9) [ILWKDIEYV (SEQ ID NO: 60)]
20 to 50	ALDPSGNQLI (source gene SEMA5B) [ALDPSGNQLI (SEQ ID NO: 12)]
20 to 50	GLLKTLQKL (source gene CLIC4) [GLLKTLQKL (SEQ ID NO: 41)]
20 to 50	VLHSLQTQL (source gene ANGPTL4) [VLHSLQTQL (SEQ ID NO: 35)]
20 to 50	YLYPNLTRL (source gene SLC6A13) [YLYPNLTRL (SEQ ID NO: 5)]
50 to 75	TLAEVRAVQEI (source gene SMYD2) [TLAEVRAVQEI (SEQ ID NO: 47)]
50 to 75	ALAVNISAA (source gene CCT6A) [ALAVNISAA (SEQ ID NO: 114)]
50 to 75	VLIVEVPGV (source gene ADCY5) [VLIVEVPGV (SEQ ID NO: 49)]
